This is an account of results in publication PMC6491428.

Data set [1] deals with TH1N1 (influenza A H1N1 target protein; protein identity not stated in the material) (Influenza A virus H1N1 (strain not stated)). In words: SPR.
For data set [2] the test system is unchanged. In words: electrochemical DPV (Apta-DEPSOR).
The subject of data set [3] is TH3N2 (influenza A H3N2 target protein; protein identity not stated in the material) (Influenza A virus H3N2 (strain not stated)). In words: SPR. For orientation: Surface plasmon resonance follows binding to a sensor surface in real time, without labels.
The test system is the same in data set [4]. In words: electrochemical DPV (Apta-DEPSOR).

The sequence “AGCAGCACAGAGGTCAGATGAGGTGATGAGATTTGTACCTCTCGCGGCACCCTATCGCTGCTACCGTGAA [Apt02>TH1N1]” registered a Kd in data set [1] of 57 nM. The binding signal in data set [2] was 2.26 µA (Ipc).

As to “AGCAGCACAGAGGTCAGATGATTGGATCGTGACGGTTGTTGGGGCTCCGCCTATCGCTGCTACCGTGAA [Apt01>TH1N1]”, in data set [1], the dissociation constant Kd is 35000 nM. Moreover, the binding signal in data set [2] was 0.85 µA (Ipc).

As to “AGCAGCACAGAGGTCAGATGCTAGCCGTGAGCGTGGTGAGCTCGGTTGACCCTATCGCTGCTACCGTGAA [Apt01>TH3N2]”, in data set [3], the Kd came out at 0.14 nM. In data set [2], this sequence yielded a binding signal (fold lower signal than with TH3N2) of 9. The binding signal in data set [4] was 1.73 µA (Ipc).

Sequence “AGCAGCACAGAGGTCAGATGGCGCGGGCGGTGCGTCGGTGTCCCGCTGGCCTATCGCTGCTACCGTGAA [Apt03>TH3N2]” gave a dissociation constant (Kd) in data set [3] of 0.6 nM. Further, in data set [4], the binding signal is 1.11 µA (Ipc).

The sequence “AGCAGCACAGAGGTCAGATGGTGGTTGTTTTGGGCGAAGTGGCCATGGTCCCTATCGCTGCTACCGTGAA [Apt02>TH3N2]” registered a dissociation constant Kd in data set [3] of 1.7 nM. The binding signal in data set [4] is 1.16 µA (Ipc).

In the case of “AGCAGCACAGAGGTCAGATGTAGGTCGTACTCTGGCGGCCTGTTTGGCCCTATCGCTGCTACCGTGAA [Apt03>TH1N1]”, in data set [1], the Kd was 0.082 nM. The binding signal in data set [2] was 3.37 µA (Ipc). The binding signal (fold lower signal than with TH1N1) in data set [4] is 5.

Regarding “AGCAGCACAGAGGTCAGATGTCTGCAGCGTGCAGGGCTGTGTGCTTACCCCCTATCGCTGCTACCGTGAA [Apt04>TH3N2]”, the Kd in data set [3] turned out to be 0.088 nM. For the same sequence, the binding signal in data set [4] is 1.61 µA (Ipc).

As for “AGCAGCACAGAGGTCAGATGTGTGCGTGCTTGGGGTATAGTCGGGTCGGCCTATCGCTGCTACCGTGAA [Apt04>TH1N1]”, the Kd in data set [1] worked out at 1.6 nM. Besides, the binding signal in data set [2] was 1.23 µA (Ipc).

In general, Kd refers to the equilibrium constant for the complex coming apart. High values mean lower affinity, low ones higher affinity.
